The values that follow are results of earlier work, collected in paper PMC2683937.

By Kd is commonly meant the equilibrium constant for the complex coming apart.

In one data set the target is TGF-β1 (Homo sapiens) (UniProt P01137).
A further data set concerns the target BMP4 (Homo sapiens) (UniProt P12644).
Chain of UniProt P12644 (P12644 293-408): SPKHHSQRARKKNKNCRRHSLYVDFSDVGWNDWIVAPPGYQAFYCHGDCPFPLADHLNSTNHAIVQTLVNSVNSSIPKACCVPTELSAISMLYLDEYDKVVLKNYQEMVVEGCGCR

Chain of UniProt P01137 (P01137 279-390): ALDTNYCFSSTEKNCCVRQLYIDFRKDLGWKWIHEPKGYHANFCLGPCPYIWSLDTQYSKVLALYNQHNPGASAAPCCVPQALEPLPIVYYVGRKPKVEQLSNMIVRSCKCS

Regarding CCN2 (from UniProt P29279), the results for the Kd in the data set with TGF-β1 (Homo sapiens) and in the data set with BMP4 (Homo sapiens) were 30 nM and 5 nM, respectively.
